Reference: the supplement of paper PMC12042874
± gives the uncertainty stated by the source.

test: amyloid nucleation score (Sup35N fusion, yeast selection) (log enrichment); library NNK2; higher = more nucleation; inactive = no reads after selection
Procedure, shortened: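 Peptides of 20 random codons, each fused to Sup35N, were expressed in psi-negative yeast. Cells were induced with 100 μM copper sulfate for 24 hours and grown 7 days at 30°C on medium lacking adenine and uracil, and plasmid inserts before and after selection were Illumina-sequenced. Nucleation scores are DiMSum log enrichments of output over input reads, centred on the mode score of non-aggregating sequences, and sequences under 100 input reads were excluded.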

| Substance | amyloid nucleation score |
| --- | --- |
| MGLSTRLH | inactive |
| DSQKLAGVVSIKVSVANVLS | 3.9 ± 0.11 |
| SGLIY | inactive |
| NIRQVIKGVSCLHIMWEKWR | -0.304 ± 0.48 |
| GNYPPTFACNSN | inactive |
| VCCAFLCASRAVVYTGKDMH | 10.18 ± 0.027 |
| CKLEQYRASWINLVTHLDEA | 0.073 ± 0.63 |
| VKMLSLKSIHLSYFCECASW | 0.28 ± 0.21 |
| SYILEFFHWIRSRLEYYGY | -1.5 ± 0.76 |
| PGCSIDWILYRRTAYGTISD | -0.619 ± 0.36 |
| MVQPS | 0.462 ± 0.5 |
| MSQFGHVCSRAYFLRDDQAN | inactive |
| HCSFCVIVGFNRCDALGSHR | 7.03 ± 0.075 |
| NQTGSRYRVFGNFHVTACFV | 0.838 ± 0.18 |
| WTRAVKPPV | -0.113 ± 0.34 |
| NTLDSGPNGGWLISTY | inactive |
| AQVDGSISSSSVVSVLKSEV | -0.262 ± 0.36 |
| SGQRQLCVWCVCVAGGRIKL | 6.54 ± 0.076 |
| VLWLADLSR | 0.113 ± 0.8 |
| TTRAKHVHWYELHNVFMLQL | 7.483 ± 0.054 |
| TRVFTSWFVV | 0.342 ± 0.65 |
| PSFMLHTCLFSHGYYILCTG | 0.005 ± 0.3 |
| CDRFYSSLVNSVGYCLLNAY | 1.47 ± 0.21 |
| VLFSRTTSEEDKRSIISMNN | 2.17 ± 0.18 |
| SYGHDWVGKGKVGGIRLM | -0.904 ± 0.49 |

| Substance | amyloid nucleation score |
| --- | --- |
| SFNFEVEWRRASNLSFRWGR | 0.039 ± 0.61 |
| DTSIW | 0.114 ± 0.29 |
| WSMVTVLRGDRG | 0.525 ± 0.54 |
| VRMSLTLSFQVLAYWEGFIK | -0.64 ± 0.49 |
| VKYVIIEHFNWSVSCCAYLR | 1.37 ± 0.23 |
| LNMVMLICNLWDVPHPRYLP | 5.14 ± 0.052 |
| RWYYTRTF | -0.504 ± 1.1 |
| AHKLCSFSVSKHHFWRLNGK | -0.023 ± 0.62 |
| NPYTCMKTHYNRRNI | 3.41 ± 0.15 |
| LMRFSDVDY | inactive |
| REGYNAIMYDV | -1.27 ± 0.62 |
| GLGGTTFI | -1.04 ± 0.43 |
| LYWSFYNYWATHVGFWHKKA | -1.87 ± 0.64 |
| CTVLSDRTCYSSTERLVRIH | inactive |
| ASSFMSDGRT | 0.35 ± 0.56 |
| EGYAGVVQMALFYSWANIRL | 0.194 ± 0.62 |
| RRIINFQGHREEYGEMHTVM | -0.449 ± 0.64 |
| VSMEKVRSDGMDRFASGFAA | 0.361 ± 0.29 |
| YHYDCYHLLTERKQGELVRT | -0.425 ± 0.35 |
| HASTEIGSWL | 0.552 ± 0.42 |
| PRSGSYYTFF | -0.672 ± 1.1 |
| ARDNQMARDI | 2.83 ± 0.15 |
| HHLLPWGWRPVYGSRLRCTL | 4.23 ± 0.049 |
| FCSSIVMVNSQCFVKSFSTK | 6.311 ± 0.028 |
| FNRGKVMCVAYNGCSRYLMD | -1.64 ± 0.75 |

| Substance | amyloid nucleation score |
| --- | --- |
| TKRHE | 0.987 ± 0.58 |
| GFPVWVYYKMDLYCLSVKGI | -0.672 ± 0.61 |
| YLYSPLVMSSHYMLFT | 5.125 ± 0.048 |
| YGMKSRVECVVY | -0.949 ± 0.63 |
| SFGMQTEMYPGSIGLV | inactive |
| LVSMNFYCMILGIESLFVLS | 4.04 ± 0.074 |
| SSAWYFSLGTDIAFDAGYSA | -0.108 ± 1.1 |
| VRTPEYSLHLVAS | -0.02 ± 0.61 |
| TLLFHTRSYVYICVLVWKQH | 0.049 ± 0.8 |
| GVDKGSVYG | inactive |
| RGWRAGMYFACF | 0.656 ± 0.42 |
| YRVVKPCWLHFGDLIVWTWC | 0.351 ± 0.35 |
| MSAPRMEQSWEHQQQRDHTC | 0.661 ± 0.33 |
| VLRTPIIHTMGTGQV | 0.297 ± 0.56 |
| NLMGFCYVSAEWVFGGRPGY | 1.97 ± 0.14 |
| SRYVPMSFY | 0.125 ± 0.79 |
| CSEYLCGVKVLTCWFGRRYS | 0.174 ± 0.4 |
| MWQSMLSAVGSVNVMSQLGT | 1.53 ± 0.33 |
| RMSVWNNECTWTSSVSVHPK | 2.37 ± 0.1 |
| RMCVWHMLVIGVRGKTGATR | 3.01 ± 0.11 |
| EQYPNKPVRCEVRATATWGP | 0.245 ± 0.27 |
| WSANVPQWLLTRPYFDSHHN | inactive |
| LNGLDPSNAHMIYYLYTSYL | -1.25 ± 0.54 |
| VRFNGLVR | inactive |
| PPRYARFKSDLHSLHAVFGN | 5.57 ± 0.061 |

| Substance | amyloid nucleation score |
| --- | --- |
| MVRDIEFTLKGRTMG | -0.032 ± 1.1 |
| GVRWYAMRPEVGYL | 0.155 ± 1.1 |
| RQLAFFLIYPHGASVTYWAP | -0.956 ± 1.1 |
| MLYYTCTQQHTDFLRCF | -0.391 ± 0.32 |
| QDCKAISSCLFRLLPELSLR | -0.92 ± 1.1 |
| IFDVNCPS | -0.196 ± 1.1 |
| YIIPGLKFLS | inactive |
| KLVDLKVRFDSHLDNLEVAL | -0.204 ± 0.46 |
| HCHAVDSLNVHFKEFIHRMN | inactive |
| FRIPRWFKTS | -0.284 ± 1.1 |
| GMSRYMHSIYD | 1 ± 0.41 |
| MSFNQLIMFETRSSTPYRWR | 5.71 ± 0.078 |
| YRFYSLRMYKFWWLTLTLCL | -1.12 ± 1.1 |
| TETTVFILLFWLLVILGRVH | inactive |
| ISYVCGPFICVLNLFYQI | 6.04 ± 0.066 |
| KYYCATSSVFYASSRQMFKS | -0.267 ± 0.49 |
| LERGENEVRWTKKLRIKFVF | -0.228 ± 1.1 |
| LLLLMWALGLLENLTTLHGF | -0.257 ± 0.47 |
| QNECKIMTLIFCLLRSKQYY | 0.005 ± 0.65 |
| CPIYDRTQGLIGLWCLCNEC | -0.668 ± 0.34 |
| CRSATEPCVLSC | 0.56 ± 0.74 |
| RLMDGYSSV | 0.548 ± 0.29 |
| NLWVCFWSDSCFT | 8.089 ± 0.045 |
| QIVIWVRLYFNVFSRSRSRV | 1.05 ± 0.36 |
| TVNCSTCM | -0.562 ± 0.19 |

| Substance | amyloid nucleation score |
| --- | --- |
| AAAYCYRTEEW | 1.6 ± 0.22 |
| FRTTALLRFKRWDYGVIRNR | 0.021 ± 0.46 |
| LSCHSDITILHDYTNLLSFI | -0.007 ± 0.63 |
| RYFDDWVNSRTVKCGWDWYA | 0.641 ± 0.17 |
| PMSFTLNRRQRRLHMLRTNN | 0.854 ± 0.43 |
| EIWMSLSLNAEISYVYYSQS | -0.658 ± 0.28 |
| KNSLKVLLNRRLRVCGSQLN | -0.309 ± 0.45 |
| ILALNWLFSICST | 6.903 ± 0.035 |
| KVRGPSNNVSSQKAHDRFDS | 0.277 ± 0.28 |
| QSKMH | -0.321 ± 0.19 |
| GSLVQNVFTMDGGDYHMR | 0.307 ± 0.27 |
| RVDCPYSGNVLTRVGNRCWA | 0.729 ± 0.25 |
| CFDPGTNRCLPWAVGVGELG | 0.959 ± 0.74 |
| EYTIFTDLLLYDFKWLEYVW | 0.561 ± 0.62 |
| YTLFLPTRNLRFLVVYGVLV | 0.009 ± 0.61 |
| FFTGFDLVPVSYI | inactive |
| AIWGTHPQRRDIRKRERIVV | -0.205 ± 0.27 |
| LDPLRPG | 1.14 ± 0.39 |
| WRSGGQPCVSGSWSVTNLCV | 3.1 ± 0.092 |
| VKNWVISCGGILNDARRLFD | -0.78 ± 1.1 |
| NSIVWGIHGFVLTLVFFTCF | -0.849 ± 1 |
| YKYSCFDRG | inactive |
| NFHLSVRSDSYVL | 3.14 ± 0.12 |
| WLNLARDWKWKSDINFWKVH | inactive |
| DSFSSWYDFQFVWSVTVNRM | inactive |

| Substance | amyloid nucleation score |
| --- | --- |
| AQNLGFHEMGLAKCCRVGLY | 0.233 ± 0.44 |
| CYKWLAYY | -1.44 ± 0.75 |
| SMRVVCYWVLRW | 3.16 ± 0.075 |
| VWCAYWKWLNLSRFNEITAR | -0.202 ± 0.23 |
| YFYPFLCLTKNQLVLSNRRT | 4.47 ± 0.073 |
| YCWMRRMKSLPGNMYVLAT | 0.25 ± 0.8 |
| FISSVIIGYSDPGVEGILLV | -0.922 ± 0.78 |
| FSYFVFLVKFVTVFTPTIHV | -1.12 ± 0.3 |
| DRCMFNYVIEVHVYSCVRFW | 4.67 ± 0.079 |
| SFMALYLSWFSQRDYAMAGS | 0.639 ± 0.46 |
| LRYKGMRFLNWMRNLKWDGI | 0.022 ± 0.65 |
| ERGSYLRESRYIVFFNLLIL | inactive |
| WLGYEEGG | 0.508 ± 0.62 |
| TTLRCHLIESKWGYVRRLTW | 4.33 ± 0.088 |
| CRCISVPCVVFVV | -0.142 ± 0.79 |
| SIINLTVPAHPHLNNPLRRQ | 4.76 ± 0.075 |
| MSRKFMGVFCTSSRGSLPRG | 0.653 ± 0.47 |
| GRTSDFKLWIGVCLLGSSYV | 1.89 ± 0.2 |
| GYFAYRVICNVVGDTGFSLA | -0.06 ± 1.1 |
| AFQWYLM | -0.693 ± 0.18 |
| IGISLSSRPCYTFFSRLRWI | -0.387 ± 0.38 |
| RMLLKLTHFALSVKGMQSRY | 0.417 ± 0.38 |
| DIVANDKMMIIRVIMGTWCH | 0.927 ± 0.45 |
| KYSTISRCAYSRIDVCGKKK | 0.488 ± 0.33 |
| ISVPYGVKGSSACMNGLGVT | 0.318 ± 0.8 |

| Substance | amyloid nucleation score |
| --- | --- |
| WSEYRFRHIPKLKKCYQVD | 0.175 ± 0.32 |
| KFPYVHLVFLARIYSF | -0.536 ± 1.1 |
| WYGFFTVLWSKTVRLDFNPM | -1.05 ± 0.54 |
| CFLELYSWFKDAVTTFN | inactive |
| PALQCLSHRAIA | 0.222 ± 0.62 |
| PYWYYVFCS | -0.689 ± 0.49 |
| IFIVYILCFFMREIFAPI | 3.77 ± 0.11 |
| CAEAFVMGFSSKGGVINRAL | 2.1 ± 0.12 |
| LSVAKPSSACRVKLWSPSVG | 0.492 ± 0.56 |
| VLVKSLMRENVPCPPLGTLS | 0.942 ± 0.36 |
| FFVPYDSYTYHLILFLKQLV | -0.535 ± 0.53 |
| LYQFSFFGYSYL | 2.39 ± 0.069 |
| HGMYKTG | 2.54 ± 0.11 |
| VCRDYGVMSMRRDWLCRMSL | 0.391 ± 0.65 |
| NYREMLWSDIRVVS | 0.004 ± 1.1 |
| TRALDPVSVSRISVRQQPLA | 1.12 ± 0.2 |
| HFLSFSMGWNSC | 4.82 ± 0.063 |
| WDLLHYFDLF | 0.232 ± 0.56 |
| CNSYEYLRN | -0.035 ± 0.76 |
| YYVHQTHVSCLLAVLCPSLK | 8.901 ± 0.039 |
| RSSQTPFWEIGSMLLSKMCA | 0.65 ± 0.42 |
